Four variants from IntAct's records for PubMed 17627274 can be followed below.

First the molecules themselves.
B1: High osmolarity signaling protein SHO1 (Saccharomyces cerevisiae), P40073 (parent)
chain: MSISSKIRPTPRKPSRMATDHSFKMKKFYADPFAISSISLAIVSWVIAIGGSISSASTNESFPRFTWWGIVYQFLIICSLMLFYCFDLVDHYRIFITTSIAVAFVYNTNSATNLVYADGPKKAAASAGVILLSIINLIWILYYGGDNASPTNRWIDSFSIKGIRPSPLENSLHRARRRGNRNTTPYQNNVYNDAIRDSGYATQFDGYPQQQPSHTNYVSSTALAGFENTQPNTSEAVNLHLNTLQQRINSASNAKETNDNSNNQTNTNIGNTFDTDFSNGNTETTMGDTLGLYSDIGDDNFIYKAKALYPYDADDDDAYEISFEQNEILQVSDIEGRWWKARRANGETGIIPSNYVQLIDGPEEMHR
partner: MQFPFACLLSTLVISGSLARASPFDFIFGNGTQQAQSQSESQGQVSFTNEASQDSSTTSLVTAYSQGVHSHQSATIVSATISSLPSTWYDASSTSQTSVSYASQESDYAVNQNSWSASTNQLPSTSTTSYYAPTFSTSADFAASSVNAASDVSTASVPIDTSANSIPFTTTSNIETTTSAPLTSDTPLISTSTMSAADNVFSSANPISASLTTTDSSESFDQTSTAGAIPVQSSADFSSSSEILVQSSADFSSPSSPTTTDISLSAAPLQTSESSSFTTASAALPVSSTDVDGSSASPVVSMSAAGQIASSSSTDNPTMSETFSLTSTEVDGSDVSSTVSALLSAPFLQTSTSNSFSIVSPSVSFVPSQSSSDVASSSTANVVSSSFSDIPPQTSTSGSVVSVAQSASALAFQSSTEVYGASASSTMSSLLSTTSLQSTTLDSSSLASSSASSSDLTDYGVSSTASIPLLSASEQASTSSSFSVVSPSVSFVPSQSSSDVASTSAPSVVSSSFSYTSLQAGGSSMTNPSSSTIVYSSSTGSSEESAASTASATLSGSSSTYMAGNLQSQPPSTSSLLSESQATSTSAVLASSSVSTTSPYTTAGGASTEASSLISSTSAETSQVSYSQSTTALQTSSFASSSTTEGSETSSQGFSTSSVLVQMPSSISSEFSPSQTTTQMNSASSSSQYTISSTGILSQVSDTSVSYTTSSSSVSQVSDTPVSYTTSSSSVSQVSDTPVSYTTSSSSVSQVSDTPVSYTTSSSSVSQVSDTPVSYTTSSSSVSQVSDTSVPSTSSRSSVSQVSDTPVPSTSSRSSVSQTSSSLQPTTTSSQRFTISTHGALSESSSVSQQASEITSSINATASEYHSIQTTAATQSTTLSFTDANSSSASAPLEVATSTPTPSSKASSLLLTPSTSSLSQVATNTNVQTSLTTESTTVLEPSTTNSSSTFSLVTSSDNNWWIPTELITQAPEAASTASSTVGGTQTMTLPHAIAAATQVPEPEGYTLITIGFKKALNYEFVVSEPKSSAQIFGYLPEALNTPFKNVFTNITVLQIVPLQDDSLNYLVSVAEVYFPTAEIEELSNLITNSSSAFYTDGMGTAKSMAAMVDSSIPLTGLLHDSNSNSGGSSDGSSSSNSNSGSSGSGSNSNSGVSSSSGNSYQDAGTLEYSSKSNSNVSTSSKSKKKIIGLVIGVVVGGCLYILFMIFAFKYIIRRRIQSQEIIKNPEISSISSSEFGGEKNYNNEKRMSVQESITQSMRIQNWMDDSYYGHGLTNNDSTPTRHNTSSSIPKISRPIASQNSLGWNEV
B2: High osmolarity signaling protein SHO1 (Saccharomyces cerevisiae), P40073 (parent)
chain: B1 chain

Variants of B1 are the subject of the first assay. The settings on record: with msb2_yeast MSB2, P32334.
As to T108I, the “effect of a mutation on the interaction” value is given as “decreasing interaction”.
As for Y106H, the “effect of a mutation on the interaction” value is on record as “decreasing interaction”.

A further assay covers variants of B2. The settings on record: with hkr1_yeast HKR1, P41809.
Sequence of hkr1_yeast HKR1, P41809 (P41809 whole entry): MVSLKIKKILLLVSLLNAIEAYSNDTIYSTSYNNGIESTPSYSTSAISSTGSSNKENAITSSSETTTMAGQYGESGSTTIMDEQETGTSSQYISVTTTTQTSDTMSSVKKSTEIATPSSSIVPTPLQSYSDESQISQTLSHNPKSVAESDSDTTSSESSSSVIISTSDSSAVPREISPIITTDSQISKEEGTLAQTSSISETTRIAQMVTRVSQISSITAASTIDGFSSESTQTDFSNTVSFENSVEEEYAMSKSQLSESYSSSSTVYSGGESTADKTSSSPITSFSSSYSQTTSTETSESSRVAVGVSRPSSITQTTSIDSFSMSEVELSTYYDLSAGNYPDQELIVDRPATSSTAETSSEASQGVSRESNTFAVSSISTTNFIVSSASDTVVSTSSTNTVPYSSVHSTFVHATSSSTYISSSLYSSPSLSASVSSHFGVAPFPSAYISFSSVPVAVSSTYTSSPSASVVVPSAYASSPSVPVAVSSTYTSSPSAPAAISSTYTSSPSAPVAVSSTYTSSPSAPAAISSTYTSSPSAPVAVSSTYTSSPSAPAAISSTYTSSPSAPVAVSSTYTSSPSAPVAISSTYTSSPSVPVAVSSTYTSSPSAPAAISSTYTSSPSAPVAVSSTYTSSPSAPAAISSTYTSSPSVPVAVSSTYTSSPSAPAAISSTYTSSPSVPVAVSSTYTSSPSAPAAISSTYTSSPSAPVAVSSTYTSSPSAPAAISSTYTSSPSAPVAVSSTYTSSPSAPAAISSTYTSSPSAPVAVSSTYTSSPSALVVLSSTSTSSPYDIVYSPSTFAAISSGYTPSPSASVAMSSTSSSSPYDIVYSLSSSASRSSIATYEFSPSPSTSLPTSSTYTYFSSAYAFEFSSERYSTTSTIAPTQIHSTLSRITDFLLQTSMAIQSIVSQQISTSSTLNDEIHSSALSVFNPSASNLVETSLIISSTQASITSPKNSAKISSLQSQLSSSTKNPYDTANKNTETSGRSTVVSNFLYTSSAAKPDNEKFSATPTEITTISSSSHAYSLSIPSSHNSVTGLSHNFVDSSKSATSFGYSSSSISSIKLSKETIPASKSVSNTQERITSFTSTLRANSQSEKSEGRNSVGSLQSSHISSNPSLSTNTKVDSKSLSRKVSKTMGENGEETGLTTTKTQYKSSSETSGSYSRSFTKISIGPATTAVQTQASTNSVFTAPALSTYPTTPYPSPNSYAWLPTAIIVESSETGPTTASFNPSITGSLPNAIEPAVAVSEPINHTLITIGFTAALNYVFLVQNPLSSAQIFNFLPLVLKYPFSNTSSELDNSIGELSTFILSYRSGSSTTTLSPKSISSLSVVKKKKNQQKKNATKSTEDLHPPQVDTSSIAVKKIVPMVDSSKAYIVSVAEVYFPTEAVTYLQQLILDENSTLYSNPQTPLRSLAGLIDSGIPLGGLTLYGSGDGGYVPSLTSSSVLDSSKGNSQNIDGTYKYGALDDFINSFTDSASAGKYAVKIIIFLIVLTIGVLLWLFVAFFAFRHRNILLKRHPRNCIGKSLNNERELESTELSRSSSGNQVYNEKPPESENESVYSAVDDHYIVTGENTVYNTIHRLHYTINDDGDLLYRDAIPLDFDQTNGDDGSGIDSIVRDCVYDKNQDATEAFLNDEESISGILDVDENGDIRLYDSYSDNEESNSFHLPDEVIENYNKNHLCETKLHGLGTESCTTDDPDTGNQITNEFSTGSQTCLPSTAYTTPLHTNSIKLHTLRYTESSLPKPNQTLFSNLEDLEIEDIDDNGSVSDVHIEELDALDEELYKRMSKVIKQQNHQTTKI
For the variant T108I, the “effect of a mutation on the interaction” value is “decreasing interaction”.
On to Y106H, for which the “effect of a mutation on the interaction” value is “decreasing interaction”.
